Data from PMC11947611, “Functional and structural characterization of Staphylococcus aureus N‐acetylglucosamine 1‐phosphate uridyltransferase (GlmU) reveals a redox‐sensitive acetyltransferase activity” (Protein Science : A Publication of the Protein Society, 2025).

Target: the molecule itself
Assay: crystal structure; cocrystals of WT SaGlmU with AcCoA and citrate (PDB 9DQF) and with UTP, CoA and Glc 1-P (PDB 9DR4); reducing conditions, 0.5 mM DTT; 200 mM lithium citrate tribasic tetrahydrate, 15-20% PEG 3350; one monomer in the asymmetric unit, trimer assembly

B1: Staphylococcus aureus N-acetylglucosamine 1-phosphate uridyltransferase (GlmU), wild type (enzyme, Staphylococcus aureus NCTC 8325)
chain: MRRHAIILAAGKGTRMKSKKYKVLHEVAGKPMVEHVLESVKGSGVDQVVTIVGHGAESVKGHLGERSLYSFQEEQLGTAHAVQMAKSHLEDKEGTTIVVCGDTPLITKETLVTLIAHHEDANAQATVLSASIQQPYGYGRIVRNASGRLERIVEEKDATQAEKDINEISSGIFAFNNKTLFEKLTQVKNDNAQGEYYLPDVLSLILNDGGIVEVYRTNDVEEIMGVNDRVMLSQAEKAMQRRTNHYHMLNGVTIIDPDSTYIGPDVTIGSDTVIEPGVRINGRTEIGEDVVIGQYSEINNSTIENGACIQQSVVNDASVGANTKVGPFAQLRPGAQLGADVKVGNFVEIKKADLKDGAKVSHLSYIGDAVIGERTNIGCGTITVNYDGENKFKTIVGKDSFVGCNVNLVAPVTIGDDVLVAAGSTITDDVPNDSLAVARARQTTKEGYRK
notes: GlmU of Staphylococcus aureus NCTC 8325; the glmU gene was amplified by PCR from genomic DNA; the domains described in the structure span Res. 1-228 (uridyltransferase), 229-251 (linker) and 252-450 (acetyltransferase); Plasmid 6xHis-SaGlmU-pET-16b (NcoI/BamHI); No removal of the tag is described; By intact mass the N-terminal methionine is removed; also called SaGlmU; WT SaGlmU
  stoichiometry N: 3
